Laboratory results published in paper PMC5748976 (The Journal of Cell Biology, 2018).

Key:
[1] = target: recombinant His-tagged Pyk2 (proline-rich tyrosine kinase 2) (UniProt Q14289 1-1009); test: pull-down
[2] = target: recombinant His-tagged FAK (focal adhesion kinase) (UniProt Q05397 1-1052); test: pull-down
Chain of recombinant His-tagged FAK (focal adhesion kinase) (Q05397 whole entry): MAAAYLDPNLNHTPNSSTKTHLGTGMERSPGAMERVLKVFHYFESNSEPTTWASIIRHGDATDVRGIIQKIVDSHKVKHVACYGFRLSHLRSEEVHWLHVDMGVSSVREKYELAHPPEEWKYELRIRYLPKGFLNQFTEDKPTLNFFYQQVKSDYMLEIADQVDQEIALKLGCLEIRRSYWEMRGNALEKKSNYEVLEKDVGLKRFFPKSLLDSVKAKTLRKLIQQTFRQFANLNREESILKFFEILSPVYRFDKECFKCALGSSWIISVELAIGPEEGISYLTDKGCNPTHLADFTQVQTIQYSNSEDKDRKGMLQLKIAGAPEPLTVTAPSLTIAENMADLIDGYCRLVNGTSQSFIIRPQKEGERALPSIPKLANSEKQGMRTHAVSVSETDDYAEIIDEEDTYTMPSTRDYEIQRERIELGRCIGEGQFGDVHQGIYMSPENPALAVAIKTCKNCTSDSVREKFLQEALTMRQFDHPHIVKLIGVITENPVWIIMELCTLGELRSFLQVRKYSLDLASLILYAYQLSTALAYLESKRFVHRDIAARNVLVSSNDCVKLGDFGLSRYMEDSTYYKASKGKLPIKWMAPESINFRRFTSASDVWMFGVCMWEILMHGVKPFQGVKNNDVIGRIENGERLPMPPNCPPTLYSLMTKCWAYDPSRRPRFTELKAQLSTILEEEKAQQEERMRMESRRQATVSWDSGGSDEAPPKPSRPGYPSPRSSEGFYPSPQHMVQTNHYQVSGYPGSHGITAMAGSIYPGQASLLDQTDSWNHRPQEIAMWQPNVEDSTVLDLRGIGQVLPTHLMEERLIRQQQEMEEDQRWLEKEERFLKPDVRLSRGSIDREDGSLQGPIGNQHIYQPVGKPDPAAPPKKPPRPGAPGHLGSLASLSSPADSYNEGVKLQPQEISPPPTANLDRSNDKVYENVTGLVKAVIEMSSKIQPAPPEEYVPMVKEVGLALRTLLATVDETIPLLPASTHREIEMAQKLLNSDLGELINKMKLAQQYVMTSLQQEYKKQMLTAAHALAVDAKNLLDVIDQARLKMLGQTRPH

Chain of recombinant His-tagged Pyk2 (proline-rich tyrosine kinase 2) (Q14289 whole entry): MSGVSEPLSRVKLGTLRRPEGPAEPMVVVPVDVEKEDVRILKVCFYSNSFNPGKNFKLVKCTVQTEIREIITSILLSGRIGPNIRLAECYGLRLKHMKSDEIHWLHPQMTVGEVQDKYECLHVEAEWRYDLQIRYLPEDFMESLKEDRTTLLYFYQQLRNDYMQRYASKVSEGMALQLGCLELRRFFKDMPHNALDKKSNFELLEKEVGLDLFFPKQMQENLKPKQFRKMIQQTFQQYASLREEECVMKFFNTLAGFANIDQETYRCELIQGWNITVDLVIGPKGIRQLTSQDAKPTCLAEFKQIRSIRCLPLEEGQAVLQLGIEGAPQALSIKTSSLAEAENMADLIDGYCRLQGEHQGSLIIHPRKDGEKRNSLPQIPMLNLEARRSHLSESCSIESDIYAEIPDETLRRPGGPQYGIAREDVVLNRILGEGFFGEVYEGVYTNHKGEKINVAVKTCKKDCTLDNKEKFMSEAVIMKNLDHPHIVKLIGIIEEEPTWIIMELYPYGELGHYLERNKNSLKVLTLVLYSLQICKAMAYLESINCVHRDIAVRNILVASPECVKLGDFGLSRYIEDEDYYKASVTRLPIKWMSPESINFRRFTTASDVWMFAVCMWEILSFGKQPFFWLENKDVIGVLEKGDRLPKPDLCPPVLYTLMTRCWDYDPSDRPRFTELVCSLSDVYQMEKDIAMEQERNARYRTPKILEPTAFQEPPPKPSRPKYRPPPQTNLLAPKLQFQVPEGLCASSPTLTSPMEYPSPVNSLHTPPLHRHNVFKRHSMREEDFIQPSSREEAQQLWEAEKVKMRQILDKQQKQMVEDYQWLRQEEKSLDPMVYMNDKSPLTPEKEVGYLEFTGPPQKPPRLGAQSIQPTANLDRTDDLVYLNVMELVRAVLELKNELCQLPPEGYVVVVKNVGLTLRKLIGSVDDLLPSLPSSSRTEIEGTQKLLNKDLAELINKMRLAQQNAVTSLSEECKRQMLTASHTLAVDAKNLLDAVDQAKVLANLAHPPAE

Kd [1]: 0.49 ± 0.138 µM | Kd [2]: 2.16 ± 0.683 µM
B1: recombinant His-tagged cortactin (natural protein)
chain: not shown
